Results reported in publication PMC8795569.

Target: HA-APP (full-length, APP695 spliced isoform), P05067
Assay: ELISA

B1: MDGA1-Fc (MDGA1 extracellular domains fused to human Fc) (Fc fusion)
chain: QGVYAPAQAQIVHAGQACVVKEDNISERVYTIRESDTLVLQCLVTGHPRPQVRWTKTAGSASDKFQETSVFNETLRIERIARTQGGRYYCKAENGVGVPAIKSIRVDVQYLDEPVLTVHQTVSDVRGNFYQEKTVFLRCTVSSNPPARFIWKRGSDTLSHSQDNGVDIYEPLYTQGETKVLKLKNLRPQDYASYTCQVSVRNVCGIPDKSITFQLTNTTAPPTLKLSVNETLVVNPGENVTVQCLLTGGDPLPQLHWSHGPGPLPLGALAQGGTLSIPSVQARDSGYYNCTATNNVGNPAKKTVNLLVRSLKNATFQITPDMIKESENIQLGQDLKLSCHVDAVPQEKVNYQWFKNGKPARTSKRLLVTRNDPELPAVTSSLELIDLHFSDYGTYLCVASFPGSPVPDLSVEVNISSETVPPTISVPKGRAVVTVREGSPAELQCEVRGKPRPPVLWSRVDKEAALLPSGLALEETPDGKLRVERVSREMSGTYRCQTARYNGFNVRAREAQVQLTVHFPPEVEPSSQDVRQALGRPVLLRCSLLRGSPQRIASAVWRFKGQLLPPPPVLPAAAAEGPDHAELRLDALTRDSSGNYECSVSNDVGSATCLFQVSAKAYSPEFYFDTPNPTRSHKLSKNYSYVLQWTQREPDAVDPVLNYRLSIRQLNQHNAMVKAIPVRRVEKGQLLEYTLTDLRVPHSYEIHLTPYTTFGAGDMASRVIHYTEPINSPSLSDNTCHFEDEKICGYTQDLTDNFDWTRQNALTQNPKRSPNTGPPTDISGTPEGYYMFIETSRPRELGDRARLVSPLYNASAKFYCVSFFYHMYGKHIGSLNLLVRSRNKGTLDTHAWSLSGNKGNVWQQAHVPINPSGPFQIIFEGVRGSGYLGDIAIDDVTLKKGECPRRQMDPNKVVVMPGS
modifications: not checked
Kd: 84.7 nM
